Assay results from paper PMC10113190 (2023).

B1: Rh5_(unproc), full-length PfRh5 (residues 26 to 526) (natural protein)
chain: ENAIKKTKNQENNLTLLPIKSTEEEKDDIKNGKDIKKEIDNDKENIKTNNAKDHSTYIKSYLNTNVNDGLKYLFIPSHNSFIKKYSVFNQINDGMLLNEKNDVKNNEDYKNVDYKNVNFLQYHFKELSNYNIANSIDILQEKEGHLDFVIIPHYTFLDYYKHLSYNSIYHKSSTYGKCIAVDAFIKKINEAYDKVKSKCNDIKNDLIATIKKLEHPYDINNKNDDSYRYDISEEIDDKSEETDDETEEVEDSIQDTDSNHAPSNKKKNDLMNRAFKKMMDEYNTKKKKLIKCIKNHENDFNKICMDMKNYGTNLFEQLSCYNNNFCNTNGIRYHYDEYIHKLILSVKSKNLNKDLSDMTNILQQSELLLTNLNKKMGSYIYIDTIKFIHKEMKHIFNRIEYHTKIINDKTKIIQDKIKLNIWRTFQKDELLKRILDMSNEYSLFITSDHLRQMLYNTFYSKEKHLNNIFHHLIYVLQMKFNDVPIKMEYFQTYKKNKPLTQ
B2: Rh5_(proc), processed form of PfRh5 lacking the N-terminal domain (residues 145-526) (domain or fragment)
chain: LQYHFKELSNYNIANSIDILQEKEGHLDFVIIPHYTFLDYYKHLSYNSIYHKSSTYGKCIAVDAFIKKINEAYDKVKSKCNDIKNDLIATIKKLEHPYDINNKNDDSYRYDISEEIDDKSEETDDETEEVEDSIQDTDSNHAPSNKKKNDLMNRAFKKMMDEYNTKKKKLIKCIKNHENDFNKICMDMKNYGTNLFEQLSCYNNNFCNTNGIRYHYDEYIHKLILSVKSKNLNKDLSDMTNILQQSELLLTNLNKKMGSYIYIDTIKFIHKEMKHIFNRIEYHTKIINDKTKIIQDKIKLNIWRTFQKDELLKRILDMSNEYSLFITSDHLRQMLYNTFYSKEKHLNNIFHHLIYVLQMKFNDVPIKMEYFQTYKKNKPLTQ

Molecular target: Biotinylated CyRPA (residues 29 to 362) with a C-terminal Avitag (P. falciparum, UniProt Q8IFM8 29-362, biotin (on the Avitag))
Test: BLI

Binder	Kd [nM]
B1	127
B2	179
